Where no end group is shown, it is not given here. The star is where a group is joined. FITC = O=C1OC2(c3ccc(O)cc3Oc3cc(O)ccc32)c2ccc(NC(=S)*)cc21
Assays:
[1] = biological target: fluoresceinyl-labeled peptide of PLP1; assay: other fluorescence titration; 0.5 µM fluoresceinyl-labeled peptide titrated with recombinant Nef(2-210); compared with a buffer control titration; fit of a simple bimolecular model with ligand depletion
[2] = biological target: T1, recombinant HIV-1 SF2 Nef(2-210) protein (HIV-1 isolate SF2, UniProt P03407 2-210); assay: as above; details: both partners purified
T1 construct: Nef protein of HIV-1 isolate SF2, residues 2-210; also called purified Nef protein; source: recombinant, purified, prepared as described in [68]
T1 sequence (P03407 2-210): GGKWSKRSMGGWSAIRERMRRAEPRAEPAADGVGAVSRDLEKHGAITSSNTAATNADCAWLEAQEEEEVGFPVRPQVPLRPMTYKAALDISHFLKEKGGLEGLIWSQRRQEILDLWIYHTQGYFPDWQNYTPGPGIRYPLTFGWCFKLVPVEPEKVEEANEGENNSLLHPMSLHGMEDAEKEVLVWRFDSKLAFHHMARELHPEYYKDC

Molecule: recombinant HIV-1 SF2 Nef(2-210) protein (from UniProt P03407 2-210) (natural protein)
- Kd [1]: 0.71 µM

B1: fluoresceinyl-labeled peptide GPM6B(112-127) (peptide, UniProt Q13491-1 112-127, looked up)
peptide: {FITC}-TTSAVKELHGEFKTTA
notes: GPM6B cytoplasmic loop, residues 112-127; numbers count on: UniProtKB entry Q13491-1; also called FITC-labeled GPM6B peptide; source: synthetic peptide
- Kd [2]: 0.64 ± 0.06 µM

Source: article PMC3524239, “Brain Transcriptome-Wide Screen for HIV-1 Nef Protein Interaction Partners Reveals Various Membrane-Associated Proteins” (PLoS ONE, 2012)
